Patent publication US9555076B2, “Neuregulin based methods and compositions for treating cardiovascular diseases” (Zensun (Shanghai) Science & Technology, Co., Ltd., priority 2002, dated 2017)
Marks after values point to notes of the source that are not given here.

System: acute myocardial injury caused by viral (Coxsackie B3) infection in mice
Test: Survival of mice infected with Coxsackie B3 virus
Format: in vivo, BALB/C mice
Details: mice n = 20
Method: 0.2 ml of 100×TCID50 CVB3 provided by Zhong Shan Hospital affiliated to Fudan University was injected intra-abdominally and established myocarditis model. Within the following week, the mouse manifested pilo-erection, depilation, emaciation, dullness and death, about half of the tested animals died at the 8th day.
Intravenous injection of the testing drug into the tail vein was carried out the same day of intra-abdominal viral infection in mice, the injection was performed for consecutive 5 days, animal survival rate was monitored, after completion of the experiment, echocardiograph, myocardial pathologic examination, serum troponin determination were carried out.
The death status of model animals in various testing drug group was monitored.
• Normal mice control group, model group and testing drug group were set up; • Normal mice control group (n=10); • Model group (n=20): Prepared buffer solution was injected; • Testing drug group (n=20): […] courses with 20 animals assigned for each group; • Placebo control group (n=20): Intra-abdominal injection of non-CVB3 freeze-thaw cellular supernatant, 0.2 ml/animal. 10.2 Dosage Set Up, Preparation of Testing Drug, Route of Drug Administration, Times of Drug Administration, Concentration and Volume of the Testing Drug • rhNRG-1β was diluted with preparation buffer solution (10 mM PB, 0.2% human serum albumin, 5% mannitol to needed concentration; • Three drug administration groups were set up, intravenous injection for consecutive 3-day, 5-day and 7-day, drug volume for each dose was 0.2 ml/animal; • Drug administration of the model group was intravenous injection into the tail vein of mice, once every day (qd), for consecutive 7 days, drug volume for each dose was 0.2 ml/animal. 7.3 Method of the Experiment 7.3.1 Set Up of Acute Viral Myocariditis Animal Model in Mice

B1: rhNRG-1 β: Recombinant human neuregulin fragment of 61 amino acid (SEQ ID NO:4), 3 disulfide bonds, expressed in E. coli (protein, listed as Homo sapiens)
chain: SHLVKCAEKEKTFCVNGGECFMVKDLSNPSRYLCKCPNEFTGDRCQNYVMASFYKAEELYQ
modifications: disulfide (positions not given here)
With B1 the “Numbers of survival animals” value (5 μg/kg (so in the source) iv qd × 5, 1st day, (I)) was 20, the “Numbers of survival animals” value (5 μg/kg (so in the source) iv qd × 5, 2nd day, (I)) was 20 and the “Numbers of survival animals” value (5 μg/kg (so in the source) iv qd × 5, 3rd day, (I)) was 20. The “Numbers of survival animals” value (5 μg/kg (so in the source) iv qd × 5, 4th day, (I)) was 19, the “Numbers of survival animals” value (5 μg/kg (so in the source) iv qd × 5, 5th day, (I)) was 18 and the “Numbers of survival animals” value (5 μg/kg (so in the source) iv qd × 5, 6th day, (I)) was 15. The “Numbers of survival animals” value (5 μg/kg (so in the source) iv qd × 5, 7th day, (I)) was 13, the “Numbers of survival animals” value (5 μg/kg (so in the source) iv qd × 5, killed, (I)) was 10 and the “Numbers of survival animals” value (7.5 μg/kg iv qd × 5, 1st day, (II)) was 20. The “Numbers of survival animals” value (7.5 μg/kg iv qd × 5, 2nd day, (II)) was 20, the “Numbers of survival animals” value (7.5 μg/kg iv qd × 5, 3rd day, (II)) was 20 and the “Numbers of survival animals” value (7.5 μg/kg iv qd × 5, 4th day, (II)) was 18. For the same molecule, the “Numbers of survival animals” value (7.5 μg/kg iv qd × 5, 5th day, (II)) was 17, the “Numbers of survival animals” value (7.5 μg/kg iv qd × 5, 6th day, (II)) was 14 and the “Numbers of survival animals” value (7.5 μg/kg iv qd × 5, 7th day, (II)) was 11. The “Numbers of survival animals” value (7.5 μg/kg iv qd × 5, killed, (II)) was 10, the “Numbers of survival animals” value (15 μg/kg iv qd × 5, 1st day, (I)) was 20 and the “Numbers of survival animals” value (15 μg/kg iv qd × 5, 1st day, (II)) was 20. For the same molecule, the “Numbers of survival animals” value (15 μg/kg iv qd × 5, 2nd day, (I)) was 20, the “Numbers of survival animals” value (15 μg/kg iv qd × 5, 2nd day, (II)) was 20 and the “Numbers of survival animals” value (15 μg/kg iv qd × 5, 3rd day, (I)) was 20. For the same molecule, the “Numbers of survival animals” value (15 μg/kg iv qd × 5, 3rd day, (II)) was 20, the “Numbers of survival animals” value (15 μg/kg iv qd × 5, 4th day, (I)) was 20 and the “Numbers of survival animals” value (15 μg/kg iv qd × 5, 4th day, (II)) was 19. The “Numbers of survival animals” value (15 μg/kg iv qd × 5, 5th day, (I)) was 19, the “Numbers of survival animals” value (15 μg/kg iv qd × 5, 5th day, (II)) was 18 and the “Numbers of survival animals” value (15 μg/kg iv qd × 5, 6th day, (I)) was 17. For the same molecule, the “Numbers of survival animals” value (15 μg/kg iv qd × 5, 6th day, (II)) was 16, the “Numbers of survival animals” value (15 μg/kg iv qd × 5, 7th day, (I)) was 14 and the “Numbers of survival animals” value (15 μg/kg iv qd × 5, 7th day, (II)) was 13. For the same molecule, the “Numbers of survival animals” value (15 μg/kg iv qd × 5, killed, (I)) was 13, the “Numbers of survival animals” value (15 μg/kg iv qd × 5, killed, (II)) was 13 and the “Number of survival animal” value (30 μg/kg iv qd × 3, 1st day, (I)) was 20. For the same molecule, the “Number of survival animals” value (30 μg/kg iv qd × 3, 1st day, (II)) was 20, the “Number of survival animal” value (30 μg/kg iv qd × 3, 2nd day, (I)) was 20 and the “Number of survival animals” value (30 μg/kg iv qd × 3, 2nd day, (II)) was 20. For the same molecule, the “Number of survival animal” value (30 μg/kg iv qd × 3, 3rd day, (I)) was 20, the “Number of survival animals” value (30 μg/kg iv qd × 3, 3rd day, (II)) was 20 and the “Number of survival animal” value (30 μg/kg iv qd × 3, 4th day, (I)) was 19. The “Number of survival animals” value (30 μg/kg iv qd × 3, 4th day, (II)) was 20, the “Number of survival animal” value (30 μg/kg iv qd × 3, 5th day, (I)) was 18 and the “Number of survival animals” value (30 μg/kg iv qd × 3, 5th day, (II)) was 19. For the same molecule, the “Number of survival animal” value (30 μg/kg iv qd × 3, 6th day, (I)) was 16, the “Number of survival animals” value (30 μg/kg iv qd × 3, 6th day, (II)) was 16 and the “Number of survival animal” value (30 μg/kg iv qd × 3, 7th day, (I)) was 14. The “Number of survival animals” value (30 μg/kg iv qd × 3, 7th day, (II)) was 15, the “Number of survival animal” value (30 μg/kg iv qd × 3, killed, (I)) was 13 and the “Number of survival animals” value (30 μg/kg iv qd × 3, killed, (II)) was 15. For the same molecule, the “Numbers of survival animals” value (30 μg/kg iv qd × 5, 1st day, (I)) was 20, the “Numbers of survival animals” value (30 μg/kg iv qd × 5, 1st day, (II)) was 20 and the “Number of survival animal” value (30 μg/kg iv qd × 5, 1st day, Example 5 (I)) was 20. The “Number of survival animals” value (30 μg/kg iv qd × 5, 1st day, Example 5 (II)) was 20, the “Numbers of survival animals” value (30 μg/kg iv qd × 5, 2nd day, (I)) was 20 and the “Numbers of survival animals” value (30 μg/kg iv qd × 5, 2nd day, (II)) was 20. The “Number of survival animal” value (30 μg/kg iv qd × 5, 2nd day, Example 5 (I)) was 20, the “Number of survival animals” value (30 μg/kg iv qd × 5, 2nd day, Example 5 (II)) was 20 and the “Numbers of survival animals” value (30 μg/kg iv qd × 5, 3rd day, (I)) was 20. For the same molecule, the “Numbers of survival animals” value (30 μg/kg iv qd × 5, 3rd day, (II)) was 20, the “Number of survival animal” value (30 μg/kg iv qd × 5, 3rd day, Example 5 (I)) was 20 and the “Number of survival animals” value (30 μg/kg iv qd × 5, 3rd day, Example 5 (II)) was 20. For the same molecule, the “Numbers of survival animals” value (30 μg/kg iv qd × 5, 4th day, (I)) was 20, the “Numbers of survival animals” value (30 μg/kg iv qd × 5, 4th day, (II)) was 20 and the “Number of survival animal” value (30 μg/kg iv qd × 5, 4th day, Example 5 (I)) was 20. The “Number of survival animals” value (30 μg/kg iv qd × 5, 4th day, Example 5 (II)) was 20, the “Numbers of survival animals” value (30 μg/kg iv qd × 5, 5th day, (I)) was 20 and the “Numbers of survival animals” value (30 μg/kg iv qd × 5, 5th day, (II)) was 19. For the same molecule, the “Number of survival animal” value (30 μg/kg iv qd × 5, 5th day, Example 5 (I)) was 19, the “Number of survival animals” value (30 μg/kg iv qd × 5, 5th day, Example 5 (II)) was 19 and the “Numbers of survival animals” value (30 μg/kg iv qd × 5, 6th day, (I)) was 18. The “Numbers of survival animals” value (30 μg/kg iv qd × 5, 6th day, (II)) was 18, the “Number of survival animal” value (30 μg/kg iv qd × 5, 6th day, Example 5 (I)) was 19 and the “Number of survival animals” value (30 μg/kg iv qd × 5, 6th day, Example 5 (II)) was 19. For the same molecule, the “Numbers of survival animals” value (30 μg/kg iv qd × 5, 7th day, (I)) was 17, the “Numbers of survival animals” value (30 μg/kg iv qd × 5, 7th day, (II)) was 17 and the “Number of survival animal” value (30 μg/kg iv qd × 5, 7th day, Example 5 (I)) was 18. For the same molecule, the “Number of survival animals” value (30 μg/kg iv qd × 5, 7th day, Example 5 (II)) was 18, the “Numbers of survival animals” value (30 μg/kg iv qd × 5, killed, (I)) was 16* and the “Numbers of survival animals” value (30 μg/kg iv qd × 5, killed, (II)) was 17*. The “Number of survival animal” value (30 μg/kg iv qd × 5, killed, Example 5 (I)) was 17*, the “Number of survival animals” value (30 μg/kg iv qd × 5, killed, Example 5 (II)) was 18* and the “Number of survival animal” value (30 μg/kg iv qd × 7, 1st day, (I)) was 20. For the same molecule, the “Number of survival animals” value (30 μg/kg iv qd × 7, 1st day, (II)) was 20, the “Number of survival animal” value (30 μg/kg iv qd × 7, 2nd day, (I)) was 20 and the “Number of survival animals” value (30 μg/kg iv qd × 7, 2nd day, (II)) was 20. For the same molecule, the “Number of survival animal” value (30 μg/kg iv qd × 7, 3rd day, (I)) was 20, the “Number of survival animals” value (30 μg/kg iv qd × 7, 3rd day, (II)) was 20 and the “Number of survival animal” value (30 μg/kg iv qd × 7, 4th day, (I)) was 20. The “Number of survival animals” value (30 μg/kg iv qd × 7, 4th day, (II)) was 20, the “Number of survival animal” value (30 μg/kg iv qd × 7, 5th day, (I)) was 20 and the “Number of survival animals” value (30 μg/kg iv qd × 7, 5th day, (II)) was 20. The “Number of survival animal” value (30 μg/kg iv qd × 7, 6th day, (I)) was 19, the “Number of survival animals” value (30 μg/kg iv qd × 7, 6th day, (II)) was 19 and the “Number of survival animal” value (30 μg/kg iv qd × 7, 7th day, (I)) was 19.
